From the Human Domainome abundance scans (Beltran et al. 2025)
± gives the uncertainty stated by the source.

B1: Zinc finger protein ZIC 2, residues 250 to 295; numbered along this chain, O95409 (parent)
chain: QCIKQELICKWIDPEQLSNPKKSCNKTFSTMHELVTHVSVEHVGGP

Variants of: B1
Assay: abundance fitness (aPCA) (normalised: wild type 0, dead -1); higher = more abundant; growth selection in yeast, the domain comes from the species named
Conditions: Homo sapiens

Variant	abundance fitness
QCIKQELICKWIDPEQLSNFKKSCNKTFSTMHELVTHVSVEHVGGP [P20F]	-0.356 ± 0.12
QCIKQELICKWIDPEQLSNQKKSCNKTFSTMHELVTHVSVEHVGGP [P20Q]	-0.264 ± 0.11
QCIKQELICKWIDQEQLSNPKKSCNKTFSTMHELVTHVSVEHVGGP [P14Q]	-0.449 ± 0.12
QCIKQELICKWIDHEQLSNPKKSCNKTFSTMHELVTHVSVEHVGGP [P14H]	-0.199 ± 0.13
QCIKQELICKWIDTEQLSNPKKSCNKTFSTMHELVTHVSVEHVGGP [P14T]	-0.377 ± 0.11
QCIKQELICKWIDPEQLSNPKKSCNKTFSTMHELVTHVSVEHVGGD [P46D]	0.004 ± 0.26
QCIKQELICKWIDPEQLSNPKKSCNKTFSTMHELVTHVSVEHVGGL [P46L]	-0.556 ± 0.28
QCIKQELICKWIDPEQLSNPKKSCNKTFSTMHELVTHVSVEHVGGI [P46I]	-0.976 ± 0.43
QCIKQELICKWIDPEQLSNPKKSCNKTFSTMHELVTHVSVENVGGP [H42N]	-1.25 ± 0.16
QCIKQELICKWIDPEQLSNPKKSCNKTFSTMHELVTHVSVEGVGGP [H42G]	-0.661 ± 0.091
QCIKQELIKKWIDPEQLSNPKKSCNKTFSTMHELVTHVSVEHVGGP [C9K]	-0.473 ± 0.11
QCIKQELILKWIDPEQLSNPKKSCNKTFSTMHELVTHVSVEHVGGP [C9L]	-0.863 ± 0.098
QCIKQELIMKWIDPEQLSNPKKSCNKTFSTMHELVTHVSVEHVGGP [C9M]	-0.822 ± 0.12
QCIKQELIGKWIDPEQLSNPKKSCNKTFSTMHELVTHVSVEHVGGP [C9G]	-0.714 ± 0.085
QCIKQEEICKWIDPEQLSNPKKSCNKTFSTMHELVTHVSVEHVGGP [L7E]	0.17 ± 0.1
QCIKQEIICKWIDPEQLSNPKKSCNKTFSTMHELVTHVSVEHVGGP [L7I]	-0.103 ± 0.12
QCIKQECICKWIDPEQLSNPKKSCNKTFSTMHELVTHVSVEHVGGP [L7C]	-0.196 ± 0.093
QCIKQELICVWIDPEQLSNPKKSCNKTFSTMHELVTHVSVEHVGGP [K10V]	-0.4 ± 0.088
QCIKQSLICKWIDPEQLSNPKKSCNKTFSTMHELVTHVSVEHVGGP [E6S]	0.009 ± 0.19

Variant	abundance fitness
QCIKTELICKWIDPEQLSNPKKSCNKTFSTMHELVTHVSVEHVGGP [Q5T]	-0.22 ± 0.089
QCIKIELICKWIDPEQLSNPKKSCNKTFSTMHELVTHVSVEHVGGP [Q5I]	-0.906 ± 0.11
QCIKHELICKWIDPEQLSNPKKSCNKTFSTMHELVTHVSVEHVGGP [Q5H]	-0.382 ± 0.089
QCIKQELICKWIDPAQLSNPKKSCNKTFSTMHELVTHVSVEHVGGP [E15A]	0.077 ± 0.088
QCIKQELICKWIDPMQLSNPKKSCNKTFSTMHELVTHVSVEHVGGP [E15M]	-0.079 ± 0.1
QCIKQELICKWIDPTQLSNPKKSCNKTFSTMHELVTHVSVEHVGGP [E15T]	-0.31 ± 0.1
QCIKQELICKWIDPYQLSNPKKSCNKTFSTMHELVTHVSVEHVGGP [E15Y]	-0.14 ± 0.12
QCIKQELICKWIPPEQLSNPKKSCNKTFSTMHELVTHVSVEHVGGP [D13P]	-0.387 ± 0.11
QCIKQELICKWIMPEQLSNPKKSCNKTFSTMHELVTHVSVEHVGGP [D13M]	-0.568 ± 0.12
QCIKQELICKWIDPEQLSNPKKSCNKTFSTMHELVTAVSVEHVGGP [H37A]	-0.683 ± 0.12
QCIKQELICKWIDPEQLSNPKKSCNKTFSTMHELVTMVSVEHVGGP [H37M]	-0.728 ± 0.13
QCIKQELICKWIDPEQLSNPKKSCNKTFSTMHELVTFVSVEHVGGP [H37F]	-1.1 ± 0.22
QCIKQELICKWIDPEQLSNPKKSCNKTFSTMHELVTPVSVEHVGGP [H37P]	-0.787 ± 0.14
QCIKQELRCKWIDPEQLSNPKKSCNKTFSTMHELVTHVSVEHVGGP [I8R]	0.241 ± 0.085
QCIKQELHCKWIDPEQLSNPKKSCNKTFSTMHELVTHVSVEHVGGP [I8H]	0.033 ± 0.14
QCIKQELICKWIDPEQLSNPKKSCNKTFSTMHELMTHVSVEHVGGP [V35M]	0.245 ± 0.097
QCIKQELICKWIDPEQLSNPKKSCNKTFSTMHELITHVSVEHVGGP [V35I]	0.03 ± 0.099
QCIKQELICKWIDPEQLSNPKKSCNKTFSTMHELVTHVSVIHVGGP [E41I]	-0.216 ± 0.12
QCIKQELICKWIDPEQLSNPKKSCNKTFSTMHELVTHVSVCHVGGP [E41C]	0.03 ± 0.1

Variant	abundance fitness
QCIKQELICKWIDPEQLSNPKKSCNKTFSTMHPLVTHVSVEHVGGP [E33P]	-0.826 ± 0.12
QCIKQELICKWIDPEQLSNPKKSCNKTFSTMHFLVTHVSVEHVGGP [E33F]	-1.03 ± 0.14
QCIKQELICKWIDPEQLSNPKKSCNKTFSTMHELVEHVSVEHVGGP [T36E]	-0.025 ± 0.097
QCIKQELICKWIDPEQLSNPKKSCNKTFSTMHELVGHVSVEHVGGP [T36G]	-0.032 ± 0.086
QCIKQELICKWIDPEQLSNPKKSCNKAFSTMHELVTHVSVEHVGGP [T27A]	-0.116 ± 0.089
QCIKQELICKWIDPEQLSNPKKSCNKHFSTMHELVTHVSVEHVGGP [T27H]	-0.449 ± 0.14
QCIKQELICKWIDPEQLSNPKKSCNKSFSTMHELVTHVSVEHVGGP [T27S]	-0.001 ± 0.087
QCIKQELICKWIDPEQLSNPKKSCNKTFSTMHELVTHVSVEHAGGP [V43A]	0.052 ± 0.086
QCIKQELICKWIDPEQLSNPKKSCNKTFSTMHELVTHVSVEHLGGP [V43L]	-0.299 ± 0.09
QCIKQELICKWIDPEQLSNPKKSCNKTFSTMHELVTHVSVEHPGGP [V43P]	0.129 ± 0.095
QCIKQELICKWIDPEQLSNPKKSCNKTFSTMHELVTHVSVEHKGGP [V43K]	0.088 ± 0.11
QCIKQELICKWIDPEQLSNPKKSCNKTFSTMHELVTHVSVEHSGGP [V43S]	0.313 ± 0.088
QCIKQELICKWIDPEQFSNPKKSCNKTFSTMHELVTHVSVEHVGGP [L17F]	0.143 ± 0.11
QCIKQELICKWIDPEQVSNPKKSCNKTFSTMHELVTHVSVEHVGGP [L17V]	0.11 ± 0.087
QCIKQELICKWIDPEQLSNPKKSWNKTFSTMHELVTHVSVEHVGGP [C24W]	-0.868 ± 0.1
QCIKQELICKWIDPEQLSNPKKSKNKTFSTMHELVTHVSVEHVGGP [C24K]	-0.979 ± 0.13
QCIKQELICKWIDPEQLSNPKKSNNKTFSTMHELVTHVSVEHVGGP [C24N]	-0.798 ± 0.16
QCIKQELICKWIDPEQLDNPKKSCNKTFSTMHELVTHVSVEHVGGP [S18D]	-0.125 ± 0.1
